We go through four sequences from the Immune Epitope Database (IEDB).

The target of one experiment is HLA-B*18:01. Description: IEDB peptide-MHC binding, purified MHC/competitive/fluorescence; filed as Kd, often an IC50 or EC50 that approximates it; ≥ and ≤ were set here for values at or beyond the usual limits of such assays.
A further experiment concerns the target HLA-A*68:02. Described as above.
In a further experiment the target is HLA-B*51:01. Described as above.
Experiment [1] has as its target HLA-A*26:01. Described as above.
Another experiment addresses HLA-A*24:03. The description is as above.
In a further experiment the target is HLA-A*02:11. The experiment is described as above.
The target of experiment [2] is HLA-B*46:01. The experiment is described as above.
Experiment [3] has as its target HLA-A*31:01. The description is as above. As to conditions: source organism: Coxiella burnetii RSA 331.
The target in another experiment is HLA-A*02:12. The description is as above.
In the next experiment the target is HLA-A*02:16. The experiment is described as above.
A further experiment addresses HLA-B*27:03. The experiment is described as above.
The target of experiment [4] is HLA-B*15:01. The description is as above.
In a further experiment the target is HLA-A*02:19. The description is as above.
Experiment [5] deals with HLA-A*02:01. The experiment is described as above.
In a further experiment the target is HLA-A*02:03. The description is as above.
The target in another experiment is HLA-B*57:01. The description is as above.
In another experiment the target is HLA-B*39:01. The description is as above.
Experiment [6] concerns the target HLA-A*69:01. The experiment is described as above.
The target of the next experiment is HLA-A*29:02. Described as above. As to conditions: source organism: Entamoeba dispar SAW760.
For experiment [7], the target named is HLA-A*03:01. Described as above. The following applies: source organism: Entamoeba dispar SAW760.
The target of a further experiment is HLA-B*15:17. The experiment is described as above. The following applies: source organism: Entamoeba dispar SAW760.
The target of another experiment is HLA-B*35:01. The experiment can be described thus: IEDB peptide-MHC binding, purified MHC/direct/fluorescence; filed as Kd, often an IC50 or EC50 that approximates it; ≥ and ≤ were set here for values at or beyond the usual limits of such assays. As to conditions: source organism: Rickettsia prowazekii.
A further experiment addresses HLA-B*07:02. The experiment is described as above. As to conditions: source organism: Rickettsia prowazekii.
The target of the next experiment is HLA-B*58:01. Described as above. As to conditions: source organism: Rickettsia prowazekii.
Another experiment addresses HLA-A*01:01. The experiment is described as above. As to conditions: source organism: Rickettsia prowazekii.
Experiment [8] deals with HLA-A*26:01. The description is as above. The following applies: source organism: Rickettsia prowazekii.
The target in experiment [9] is HLA-B*46:01. The description is as above. As to conditions: source organism: Rickettsia prowazekii.
The target in experiment [10] is HLA-A*31:01. Described as above. As to conditions: source organism: Rickettsia prowazekii.
In the next experiment the target is HLA-A*11:01. Described as above. The following applies: source organism: Rickettsia prowazekii.
The target of a further experiment is HLA-B*40:01. The description is as above. The following applies: source organism: Rickettsia prowazekii.
In experiment [11] the target is HLA-B*15:01. The experiment is described as above. As to conditions: source organism: Rickettsia prowazekii.
A further experiment addresses HLA-B*44:02. The description is as above. As to conditions: source organism: Rickettsia prowazekii.
Experiment [12] concerns the target HLA-A*02:01. The description is as above. As to conditions: source organism: Rickettsia prowazekii.
The next experiment addresses HLA-B*27:05. The description is as above. As to conditions: source organism: Rickettsia prowazekii.
Experiment [13] concerns the target HLA-A*69:01. The experiment is described as above. The following applies: source organism: Rickettsia prowazekii.
The target in the next experiment is HLA-B*15:02. The experiment is described as above. The following applies: source organism: Rickettsia prowazekii.
For experiment [14], the target named is HLA-A*03:01. The description is as above. As to conditions: source organism: Rickettsia prowazekii.
For the next experiment, the target named is HLA-B*08:01. Described as above. As to conditions: source organism: Rickettsia prowazekii.
The mark [15] stands for this setting: source organism: Coxiella burnetii RSA 331.
[16] abbreviates: source organism: Entamoeba dispar SAW760.
The mark [17] stands for this setting: source organism: Deerpox virus W-848-83.

Take HMNKLPLAK: the Kd with HLA-B*18:01 (setting [15]), with HLA-A*68:02 (setting [15]), in the experiment with HLA-B*51:01 (setting [15]), with HLA-A*26:01 [1] (setting [15]), in the experiment with HLA-A*24:03 (setting [15]) and with HLA-A*02:11 (setting [15]) was not below 20 µM throughout. In addition, the Kd (as a rule, the concentration at which binding is half-saturated) with HLA-B*46:01 [2] (setting [15]) is not below 20 µM; with HLA-A*31:01 [3], 0.223 µM; with HLA-A*02:12 (setting [15]) it was not below 20 µM; with HLA-A*02:16 (setting [15]), not below 20 µM; in the experiment with HLA-B*27:03 (setting [15]), not below 20 µM; in the experiment with HLA-B*15:01 [4] (setting [15]), not below 20 µM. Besides, the Kd with HLA-A*02:19 (setting [15]), with HLA-A*02:01 [5] (setting [15]), with HLA-A*02:03 (setting [15]), with HLA-B*57:01 (setting [15]), with HLA-B*39:01 (setting [15]) and with HLA-A*69:01 [6] (setting [15]) was not below 20 µM throughout.

Regarding FELLHFISS, the Kd in the experiment with HLA-B*18:01 (setting [16]) was 0.564 µM; with HLA-A*68:02 (setting [16]), not below 20 µM; with HLA-B*51:01 (setting [16]), not below 20 µM; with HLA-A*26:01 [1] (setting [16]), not below 20 µM; with HLA-A*24:03 (setting [16]), not below 20 µM; with HLA-A*02:11 (setting [16]), not below 20 µM. Also, the Kd with HLA-B*46:01 [2] (setting [16]), with HLA-A*02:12 (setting [16]), in the experiment with HLA-A*02:16 (setting [16]), with HLA-B*27:03 (setting [16]), with HLA-B*15:01 [4] (setting [16]) and in the experiment with HLA-A*02:19 (setting [16]) was not below 20 µM in each case. Further, the Kd with HLA-A*02:01 [5] (setting [16]), in the experiment with HLA-A*02:03 (setting [16]), with HLA-B*57:01 (setting [16]), with HLA-A*29:02, with HLA-B*39:01 (setting [16]) and in the experiment with HLA-A*69:01 [6] (setting [16]) was not below 20 µM throughout. Further, the Kd with HLA-A*03:01 [7] and with HLA-B*15:17 was not below 20 µM each time.

As for YGGKKAVTY, the Kd with HLA-B*35:01 is 0.249 µM; with HLA-B*07:02 it was not below 20 µM; with HLA-B*58:01, not below 20 µM; with HLA-A*01:01, not below 20 µM; with HLA-A*26:01 [8], not below 20 µM; with HLA-B*46:01 [9], not below 20 µM. The Kd with HLA-A*31:01 [10] was not below 20 µM; in the experiment with HLA-A*11:01 it was not below 20 µM; with HLA-B*40:01, not below 20 µM; with HLA-B*15:01 [11], 1.4 µM; in the experiment with HLA-B*44:02 it was not below 20 µM; in the experiment with HLA-A*02:01 [12], not below 20 µM. Also, the Kd in the experiment with HLA-B*27:05, with HLA-A*69:01 [13], with HLA-B*15:02, with HLA-A*03:01 [14] and with HLA-B*08:01 was not below 20 µM throughout.

As to YVAGITLTH, the Kd with HLA-B*18:01 (setting [17]), in the experiment with HLA-B*51:01 (setting [17]), in the experiment with HLA-A*02:11 (setting [17]), with HLA-A*02:12 (setting [17]), in the experiment with HLA-A*02:16 (setting [17]) and with HLA-B*27:03 (setting [17]) was not below 20 µM each time. Moreover, the Kd with HLA-A*02:19 (setting [17]), with HLA-A*02:01 [5] (setting [17]), in the experiment with HLA-A*02:03 (setting [17]), in the experiment with HLA-B*57:01 (setting [17]), with HLA-B*39:01 (setting [17]) and with HLA-A*69:01 [6] (setting [17]) was not below 20 µM in each case.
